# T1: MTBP (Mdm2 Binding Protein), Xenopus (Xenopus laevis (endogenous in egg …, UniProt Q6NRW0 1-860))
# T1 construct: MTBP of Xenopus laevis, endogenous in egg extract; 96 kDa as printed; Printed N-terminal 125 residues (antigen MTBP-2): [residues removed]
# T1 sequence (looked up): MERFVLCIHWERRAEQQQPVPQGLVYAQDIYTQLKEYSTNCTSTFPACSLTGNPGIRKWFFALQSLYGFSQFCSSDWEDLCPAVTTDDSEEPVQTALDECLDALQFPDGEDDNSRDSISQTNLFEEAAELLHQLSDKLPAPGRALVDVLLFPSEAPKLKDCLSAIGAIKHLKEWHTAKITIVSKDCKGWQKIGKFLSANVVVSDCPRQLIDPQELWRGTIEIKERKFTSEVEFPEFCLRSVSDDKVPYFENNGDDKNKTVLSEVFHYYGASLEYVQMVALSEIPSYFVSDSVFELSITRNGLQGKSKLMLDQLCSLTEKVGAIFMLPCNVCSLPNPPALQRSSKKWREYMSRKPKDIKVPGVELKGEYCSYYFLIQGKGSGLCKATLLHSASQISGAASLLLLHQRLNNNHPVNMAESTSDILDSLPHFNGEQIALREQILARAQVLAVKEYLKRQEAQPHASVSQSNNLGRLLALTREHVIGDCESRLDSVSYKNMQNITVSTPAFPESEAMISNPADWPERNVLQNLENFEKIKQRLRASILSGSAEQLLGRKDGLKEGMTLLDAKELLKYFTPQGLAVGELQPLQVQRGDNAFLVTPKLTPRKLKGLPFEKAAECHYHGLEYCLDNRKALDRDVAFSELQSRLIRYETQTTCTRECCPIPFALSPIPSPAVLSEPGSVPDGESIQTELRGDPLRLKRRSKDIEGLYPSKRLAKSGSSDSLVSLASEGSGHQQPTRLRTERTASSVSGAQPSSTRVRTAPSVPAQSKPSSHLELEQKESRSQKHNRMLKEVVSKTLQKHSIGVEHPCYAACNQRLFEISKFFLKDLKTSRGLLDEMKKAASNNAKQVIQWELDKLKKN
# B1: Treslin/Ticrr, Xenopus (natural protein, UniProt D3IUT5 1-1985, looked up)
# chain: MAPSHNVVLLVDTAESSDKSRLRRVSLRLLNFLACRAGLGQVRWSYRFLNSSGGRCRPPRRSDLRELGPRGWEEFEDELEACWERARNCRPSSTQSSRAQLLQTALMETLADFQWDRPDITSPTKPTLLRSRRGRIVAADEPLKDDSPDNFINPHSRNSIFLLSSCPHSGTELGQFAATSGDFSTQKVMDKLLPKSLQKIVSSKRVRVYWLDTSDWTQFGSSSDHSGYWTMVELMHQVEGRILPSESILGSSCQKAKTLPSFSVPPINIPFESVLNYLIFSEPDYQLWFPRRDGILFLTGKDGTKQLDCAVSLEPVSMIQKLSTSLMTIELKGTMQNCNLPLAGLRVETWLLHNSDCVQLQKLTKELMLKELHMIATVTLEDDVLPRTGILSPLSETAAVLNVICSERTLGLDNLHVQGSVHETDKETFSDLPDIVMSVLNHVYSSEDNTLAPDFPVPEWIKQELSQSSRWTSSVTARWYPLSGVSGASCNLMESFRLINAASSNCDEHLKFDQELTNYLSEFYQKKSVDDAGLGVHRENQKKSGLPRTPVRQKMKTLPRALQMLNAARLNVKAQKADSTLPVPNEKNSQMKRRSSGKQDNKPKQLKPTEFQSEDGLISYIKENYEEAVSLVDHSTMTWARDTLTTIKSYLKSIGSEQIETEAIDKVKLLFKTSKVIRQNYRNNQDKEVKLKECQLQVFLRLEMFVQCPVIQMDSDELELIIEEITDILRIVSLTEDPLFLTKFLEVDVLTQYIASVPKILADIYFSLGTQIPEVLVLVLPSDGDDSIMHEEKSVKSQPSTSRVPSVAPIGAETDQLEDLRTRSAKKRRSTALARHRSVAESSQSFRQIEVPKRQPNKENVQSNAVVVLEKLKLPLPAQPQKDAEAKVRRNLFIQETRSPSKRCSKMPRSQSVSAVESLKRKRSKSHDGSKDHHKLLTKKVSETPVHKQTANRLLLRQIKGRPSESNSNISIVEESPEKEIRDIDLRRSPRIKQLSLTRRNSSSFYASQPKSRNLERVNSATQLQQSRERPGSCLISEVKTPKRLLFGEVLGMISPPTTKRSRRILDMVNPVYKTPGKTPRKTPSKNIPNFEDQSGNMLVKSPCTPYTPRTPSRTPKRLKTPSKGSTERKKAAKNLGKLFSPSKPEEKSPLKLWGRRSERLAQMTPGKDGSPYKQSVCQTLMEVKTPQKLQRLESKDFRTPSRTPTRSNNTTPAKQSMQISNTPRKSDLKHPQEHESRGPSGYILWTPQKRILASVPHTPILQTPQKPISASVPRTPVCRTPQKAILSSVPSTPVCQTPNKAILTSVSRTPVYQTPQKAILASVMSTPVYQTPQKPVLASVPTTPILKTPQRSALASVSHTPSPKKYIMKELTVAITRMRECTPEKVLGSNLSSSATPSSALKSFCSEKTTSVCQTPKKSSIALLKPCDSLEFSGAPERLMDSLCSNKDSTKAETACTVPSQISTQMQNVINAGECTDSLSQTSVSSPSIPFTDKSLSPDLKDALSDVTSSKAEGVTIVSEKLDSSSMDSQEATDSFINSSQTEESIDISEARVVSTEASELKMKVLITRKPSGSGVSYLPTTPKCLGNVCSTSTYGLRCTPDRRQREAAARLGTPEIPAKFSTPKSHCKMIPQSIYEVELEMQESGLPKLRFKRTDSNSTIDMDVNKTPKISRKRKGDESPFNEKWCSKHAVRTEPACVSPSCVRTSHYTPGKSGIQTFICQSYTPNRCLSAAASPSQSDAGVPWTPSPKEKLSTDVINSWPRKKKASALCTNLLKCDKIPEYAEEDGGDFELEGVSKLLEKSPVIEQQSKVDGGTFGLRSRKRVFSLVSPTKETENPVKRVCTFNRHEDSSTATHRHQTKEEMEIFSSDQSRSSYLSSSQQSICDDVFNMSDFTPPSKVPKNPLSACGLLTLTQSPLLYKGKTPSSKRKEKIQDVFSDGDSDHGTPTLKRPTNPAAVSDDSPFRKVNPLRSISKTYSRKKLIT
# notes: Treslin (Ticrr) of Xenopus laevis, endogenous in egg extract; 220 kDa as printed; no sites are mapped
# Biological target: T1, MTBP (Mdm2 Binding Protein), Xenopus
# Test: SEC + other: sucrose gradient centrifugation; 3% PEG-precipitated proteins of Xenopus egg extract in LFB1/50; Agilent BIO SEC-5 column at 4°C and 5-40% sucrose gradient; fractions immunoblotted for MTBP and Treslin; native mass by the Siegel and Monty equation
# Settings: partners not purified
binder,measurement,value
B1,stoichiometry N,2 molecules of Treslin with 2 molecules of MTBP

# From PMC8548084, “The role of DDK and Treslin–MTBP in coordinating replication licensing and pre-initiation complex formation” (Open Biology, 2021)
